For experiment [1], the target named is full-length SARS-2 E protein (E-FL) (SARS-CoV-2) (UniProt P0DTC4). Put plainly: AUC; sedimentation velocity, E-FL at DPR 125 in 5 mM C14SB micelles, 50 mM Tris-HCl pH 7.3, 100 mM NaCl, 29.4% D2O, 20 °C, 50,000 rpm.
Experiment [2] addresses truncated SARS-2 E protein corresponding to residues 8–65 with N-terminal 6-His tag (6H-E-TR) (SARS-CoV-2) (UniProt P0DTC4). As to the kind of experiment: AUC; sedimentation velocity, His-E-TR at DPR 70 in 5 mM C14SB micelles, 50 mM Tris-HCl pH 7.3, 100 mM NaCl, 29.4% D2O, 20 °C, 50,000 rpm.
The target is the same in experiment [3]. Put plainly: AUC; sedimentation velocity, His-E-TR at DPR 25 in 5 mM C14SB micelles, 50 mM Tris-HCl pH 7.3, 100 mM NaCl, 29.4% D2O, 20 °C, 50,000 rpm.

Where “and” joins values, the source holds several entries; their conditions need not be identical. Identical values can stand only once.

In the case of “full-length SARS-2 E protein (E-FL) (from UniProt P0DTC4 1-75) (natural protein)”, the stoichiometry N in experiment [1] is 2 and 4.6.
In the case of “truncated SARS-2 E protein corresponding to residues 8–65 with N-terminal 6-His tag (6H-E-TR) (from UniProt P0DTC4 8-65) (domain or fragment)”, the stoichiometry N in experiment [2] stood at 2.56; in experiment [3], 3.

(Values after PMC10420310, “The Complex Proteolipidic Behavior of the SARS-CoV-2 Envelope Protein Channel: Weak Selectivity and Heterogeneous Oligomerization” (International Journal of Molecular Sciences, 2023).)
